Results published in the nanobody polyreactivity screen of Harvey et al. (2022).

Test: yeast display, Sf9 membrane polyspecificity reagent, FACS + sequencing; frameworks hold sequencing errors
Outline: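 Nanobodies from a synthetic yeast display library (Saccharomyces cerevisiae BJ5465), induced 36–48 hours with galactose, were stained 1 hour at 4 °C with 10% biotinylated, detergent-solubilized Sf9 membrane reagent, enriched on streptavidin microbeads, then FACS-sorted. Anti-HA (expression) and streptavidin (reagent binding) fluorescence set low and high (top ~1%) gates. Polyreactivity labels come from the gate of origin. Genes were colony-PCR amplified, MiSeq 2 × 250 sequenced and filtered by CDR length.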

Sequence | polyreactivity (PSR sort gate)
QVQLVESGGGLVQAGGSLRLSCAASGLTFDNNAMGWYRQAPGTERELVAAISYRGSSTYYADSVKGRFTISRDNAKNTVYLQMNSLKPEDTAVYYCAADVVDLGRFDYWGQRTQVTVSS | low polyreactivity
QVQLVESGGGLVQAGGSLRLSCAASGLTFDPYAMGWYRQAPGKERELVADISDGASTYYADSVKGRFTMSRDNAKNTVYLQMNSLKPEDTAVYYCNVDVGWYAFTDAYDYWGQGTHVTVSS | low polyreactivity
QVQLVESGGGLVQAGGSLRLSCAASGLTFDRYAMGWYRQAPGKERELVAAISGSGSSTYYADSAKGRFTISRDNAKNTVYLQMNSLKPEDTAVYYCAADRDLGYDTRYNYWGQGTQVTVSS | low polyreactivity
QVQLVESGGGLVQAGGSLRLSCAASGLTFDYYAMGWYRQAPGKERELVAAIDWSGGSTYYADSVKGRFTISRDNAMNTVYFQMNSLKPEDSAVYYCATESDDSGMDYWGQGTQVTVSS | low polyreactivity
QVQLVESGGGLVQAGGSLRLSCAASGLTFDYYAMGWYRQAPGKERELVAAISIGGSTNYADSVKGRFTISRDNAKNNVYLQMNSLKPEDTAVYYCAAQGYLRLRTHFNYWGQGTQVTVSS | low polyreactivity
QVQLVESGGGLVQAGGSLRLSCAASGLTFDYYVMGWYRQAPGKERELVATISWSGDITYYADSVKGRFTISRDNAKNTVYLQMNSLKPEDTAVYYSATDKSYSSWSAQYDYWGQGTQVTVSS | low polyreactivity
QVQLVESGGGLVQAGGSLRLSCAASGLTFEWYAMGWYRQAPGKERELVAAISWNGGSTYYADSVKGRFTISRDNAKNTVYLQMNSLKPEDTAVYYCATSSPRRYYWGQGTLVTVSS | high polyreactivity
QVQLVESGGGLVQAGGSLRLSCAASGLTFEYNAMGWYRQAPGKERELVAAITSGDNTYYADSVKGRITISRDNAKNTVYLQMNSLKPEDTAVYYCAKYRWNWRYVSRGDSWGQGTQVTVSS | high polyreactivity
QVQLVESGGGLVQAGGSLRLSCAASGLTFFRNAMGWYRQAPGKEREFVAGITSTDGSTYYADSVKGRFTISRDNAKNTVYLQMNSLKPEDTAVYYCAAAYRVRGRTYDAWGQGTQVTVSS | high polyreactivity
QVQLVESGGGLVQAGGSLRLSCAASGLTFFYYAMGWYRQAPGKERELVAGISRSGGSTYYADSVKGRFTISRDNAKNTVYLQMKSLKPEDTAVYYCAKRTLVASYIYREGEYWGQGTQVTVSS | high polyreactivity
QVQLVESGGGLVQAGGSLRLSCAASGLTFGAYAMGWYRQAPGKEREFVAAITYSGGSTNYADSVKGRFTISRDNAKNTVYLQMISLKPEDTAVYYCNAGYYSPWAFYPYDYWGQGTQVTVSS | high polyreactivity
QVQLVESGGGLVQAGGSLRLSCAASGLTFGAYAMGWYRQAPRKEREFVAAITYSGGSSNYADSVKGRFTISRDNAKNTVYLQMNSLKPEDTAVYYCNAGYYSPWAFYPYDYWGQGTQVTVSS | high polyreactivity
QVQLVESGGGLVQAGGSLRLSCAASGLTFGDYALGWYRQAPGKDRELVAVISRSGGSTYYADSVKGRFTISRDNAKNTVYLQMNSLKPEDTAVYYCAAEYYSYRYDGDYWGQGTQVTVSS | low polyreactivity
QVQLVESGGGLVQAGGSLRLSCAASGLTFGDYVMGWYRQAPGKERELVATITSDGGTTYADSVKGRFTISRDNAKNTVYLQMNSLKPEDTAVYYCAAGVTGPSDDYDYWGQGTQVTVSS | low polyreactivity
QVQLVESGGGLVQAGGSLRLSCAASGLTFGGNAMGWYRQAPGKERELVAAISWSDDTTDYADSVKGRFTISRDNGKYTVYLQMNSLKPEDTAVYYCAARLPFEHVDYWGQGTQVTVSS | low polyreactivity
QVQLVESGGGLVQAGGSLRLSCAASGLTFGHYAMGWYRPAPGKERELVAAITSGGRTYYADSVKGRFTISRDNAKYTVYLQMNSLKPEDTAVYYCATRGPRYRYYYWGQGTQVTVSS | high polyreactivity
QVQLVESGGGLVQAGGSLRLSCAASGLTFGIYAMGWYRQAPGKERELVATISWRGGSTYYADSVKGRFTISRDNAKNTVYLQMNSLKPEDTAVYYCNADNEYRLGYWDDSCGQGTQVTVSS | low polyreactivity
QVQLVESGGGLVQAGGSLRLSCAASGLTFGLNALGWYRQAPGKERELVAAITWSGGSTYYADSVKGRFTISRDNAKNTVYLQMNSLKPEDTAVYYCATDNWSVNGGYNYWGQGTQVTVSS | low polyreactivity
QVQLVESGGGLVQAGGSLRLSCAASGLTFGLNAMGWYRQAPGKEREVVAAITWSGGSTYYADSVKGRFTISRDNAKNTVYLQMNSLKPEDTAVYYCATDNWSVNGGYNYWGQGTHVTVSS | low polyreactivity
QVQLVESGGGLVQAGGSLRLSCAASGLTFGLNAMGWYSQAPGKERELVAAITWSGGSTYYADSVKGRFTISRDNAKNTVYLQMNSLKPEDTAVYYCATDNLSVNGGYNYWGQGTQVTVSS | low polyreactivity
QVQLVESGGGLVQAGGSLRLSCAASGLTFGPYAMGWYRQAPGKERELVAAITSGGNTNYADSVKGRFTISRDNAKNTVYLQMNSLKPEDTAVYYCATSYYLAYRSITPYDYWGQGTQVTVSS | low polyreactivity
QVQLVESGGGLVQAGGSLRLSCAASGLTFGSYAMGWYRQAPGKERELVAAISRSGGSTYYADSVMGRFTISRDNAKNTVYLQMNSLKPEDTAVYYCNAVNRYYAPTDRRVGYDYWGQGTQVTVSS | high polyreactivity

Sequence | polyreactivity (PSR sort gate)
QVQLVESGGGLVQAGGSLRLSCAASGLTFGSYAMGWYRQAPGKERELVAAISSRGGTTYYADSVKGRFTISRDNAKNTVYLQMNSLKPEDTAVYYCAARSRRYSYDNLGHWGQGTQVTVSS | high polyreactivity
QVQLVESGGGLVQAGGSLRLSCAASGLTFGTNAMGWYRQAPGKERELVAAISTSSGSTYYADSVKGRFTISRDNAKNTVYLQMNSLKPEDTAVYYCAAVTVTKMSYYRYYYWGQGTQVTVSS | low polyreactivity
QVQLVESGGGLVQAGGSLRLSCAASGLTFGYYVMGWYRQAPGKERELVADINFSGGSTYYADSVKGRFTISRDNAKNTVYLQMNSLKPEDTAVYYCNGVVYRFTVSTGYESWGQGTQVTVSS | low polyreactivity
QVQLVESGGGLVQAGGSLRLSCAASGLTFHDYAMGWYIQAHVKERELVAGINSGGSTNYADSVKGRFTISRDNAKNTVYLQMNSLKPEDTAVYYCARGPQYDEGEYWGQCTQVTVSS | low polyreactivity
QVQLVESGGGLVQAGGSLRLSCAASGLTFHRYAMGWYRQAPGKERELVADISSGDSTNYADSVKGRFTISRDNAKNTVYLQMTSLKPEDTAVYYCNTDGYIYRYRFDYWGQGTQVTVSS | low polyreactivity
QVQLVESGGGLVQAGGSLRLSCAASGLTFHYYAMGWYRQAPGKERELVAVISSGGSTYYADSVKGRFTISRDNAKNTVYLQMNSLKPEDTAVYYCAKLSLSWDGYYQYDYRGQGTQVTVSS | low polyreactivity
QVQLVESGGGLVQAGGSLRLSCAASGLTFIPNAMGWYRQAPGKERELVAAISGTGGSTYYADSVKGRFTISRDNAKNTVYLQMNSLKPEDTAVFYCAARAYLGYYSWGQGTQVTVSS | high polyreactivity
QVQLVESGGGLVQAGGSLRLSCAASGLTFIRYAMGWYRQAPGKERELVASISRGGSTYYADSVKGRVTISRDNAKNTVYLQMNSLKPEDTAVYYCAAQHVGHNYYNSGFYYWGQGTQVTVSS | low polyreactivity
QVQLVESGGGLVQAGGSLRLSCAASGLTFIYNAMGWYRQAPGKERELVAAISGNGGDTYYADSVKGRFTISRDNAKNTVYLQMNSLKPEDTAVYYCAADYAYTPITWDEYWGQGTQVTVSS | low polyreactivity
QVQLVESGGGLVQAGGSLRLSCAASGLTFIYYAMGWYRQAPGKERELVAAISVSGGSTYYADSVKGRFTISRDNAKNTVYLQMNSLKPEDTAVYYCAADWFVHIPRYQYSFDYWGQGTQVTVSS | low polyreactivity
QVQLVESGGGLVQAGGSLRLSCAASGLTFKENVMGWYRQAPGKERELVAAISTGASTYYADSVKGRFTISRDNAKNTVYLQMNSLKPEDTAVYYCAKRVTRWYGYWGQGTQVTVSS | high polyreactivity
QVQLVESGGGLVQAGGSLRLSCAASGLTFKKYTIGWYRQAPGKETQLVAVITSGGSTYYADSVKGRFTISRDNAKNTVYLQMNSVKPEDTAVYYGAVKYPELRSWGNYYWGQGTQVTVSS | high polyreactivity
QVQLVESGGGLVQAGGSLRLSCAASGLTFKPYAMVWYRQAPGKEREFVAAISWRSGSTYYADSVKGRFTISRDYEKNTVYLQMNRLKPEDTAVYYCNALYRVFVGTYDFWGQGTHVTVSS | high polyreactivity
QVQLVESGGGLVQAGGSLRLSCAASGLTFKRYAMGWYRQAPGTEREFVAAISAGGASTHYADSVKGRFTISRDNAKNTVYLQMNSLKPEDTAVYYCATDYRTFRPSFGYWGQGTQVTVSS | low polyreactivity
QVQLVESGGGLVQAGGSLRLSCAASGLTFKYYAMGWYRQAPGKERELVAAITSTGGRTYYADSVKGRFTISRDNAKNTVYLQMNSLKPEDTAVYYCAAYYVGSSKYDSWGQGTQVTVSS | low polyreactivity
QVQLVESGGGLVQAGGSLRLSCAASGLTFKYYTMGWYRQAPGKERELVAAISRSGTITYYADSVKGRFTISRDNAKNTVYLQMNSLKPEDTAVYYSNKASTYPSYDYWGHGTQVTVSS | high polyreactivity
QVQLVESGGGLVQAGGSLRLSCAASGLTFKYYTMGWYRQAPGKERELVADISRTGRTSYADSVKGRFTISRDNAKNTDYLQMNSLKPEDTAVYYCNADFYVSGYSLFASIYDYWGQGTQVTVSS | high polyreactivity
QVQLVESGGGLVQAGGSLRLSCAASGLTFLDYAMGWYRQAPGKERELVAAITSGGSTNYADSVKGRFTISRDNAKNTVYLQMNSLKPEDTAVYYCATDLEVSAYDYWGQGTQVTVSS | low polyreactivity
QVQLVESGGGLVQAGGSLRLSCAASGLTFLINAMGWYRQAPGKERELVAAITSSGGSTSYADSVKGRFTISRDNAKYTVYLQMNSLKPEDTAVYYCAADLNAYPQRAYDYWGQGTQVTVSS | low polyreactivity
QVQLVESGGGLVQAGGSLRLSCAASGLTFLPNAMGWYRQAPGKERELVAAITNGGGTNYADSVKGRFTISRDNAKNTVYLQMNSLKPEDTAVYYCNADSTYFGGHDYWGQGTQVTVSS | low polyreactivity
QVQLVESGGGLVQAGGSLRLSCAASGLTFNTSAMGWSRQAPGKEREWVAAITSSGSITYYADSVKGRFTISRDNAKNTVYLQMNSLKPEDTAVYYCAAAVGYYAFGTYPFDDWPYDYWGQGTQVTVSS | high polyreactivity
